Measurements published in patent publication US20230279123A1 (REGENECORE BIOTECH, published 2023).
Blank lines part the entries; values can stand above or below the binder they belong to.

What was measured:
IL-4Rα (on TF-1 cells) [1] = molecular target: T1, IL-4Rα (on TF-1 cells) (UniProt P24394 26-825, limits assumed); test: cell-based or functional assay
[2] = molecular target: T2, IL-4Rα (receptor protein / antigen) (UniProt P24394 26-232, limits assumed); test: BLI (Octet 96), antibody loaded on sensor, antigen in solution
T2 construct: also called IL-4 receptor subunit α
Description: (§1) Assay steps: Octet 96 and Data Acquisition software in the supporting computer were run. The bottom and sides of an acquisition probe were cleaned using a lens tissue with an appropriate amount of 75% ethanol, and the instrument was preheated for 15 min or more. Sensor pre-wetting: before the assay, the Sensor was soaked in the SD buffer for 10 min or more for later use. Then, the machine procedure was set according to: baseline→antibody→baseline→antigen binding→antigen dissociation→sensor regeneration for assay operation.

IL-4Rα (on TF-1 cells) [3] = molecular target: T1, IL-4Rα (on TF-1 cells); test: cell-based or functional assay; remark: listed apart in the source
[4] = molecular target: T2, IL-4Rα (receptor protein / antigen); test: BLI (Octet 96), antibody loaded on sensor, antigen 200 nM and 2-fold dilutions in solution
Description: as §1

[5] = molecular target: T2, IL-4Rα (receptor protein / antigen); test: competition ELISA: IL-4Rα coated, biotin-IL-4 at EC80 mixed with antibody dilutions, OD450
Description: (§2) (3) A biotin-conjugated ligand protein (IL-4 or IL-5) was diluted to 2 times the EC80 concentration, and the antibody was diluted to 2 times the initial concentration, and 5-fold gradient dilution was carried out. The ligand protein, and the diluted antibody (dupilumab, 4E9V10-2B3V2, 4E9-V0 or 2B3 (SEQ ID NO. 25)) and hIgG respectively, were transferred at 1:1 into a new dispensing plate and mixed well.
(§3) (7) A stopping solution was added, and the values of samples in different wells were immediately read at the wavelength of 450 nm with a microplate reader and recorded as OD450. EC50 was calculated by plotting. 4E9-V0, non-humanized anti-[…] single domain antibody 2B3, dupilumab, reslizumab, and hIgG were used as controls, and the results are shown in Tables 6 and 7 and FIGS. 5 and 6, respectively.

IL-4Rα (on TF-1 cells) [6] = molecular target: T1, IL-4Rα (on TF-1 cells); test: cell-based or functional assay; remark: listed apart in the source
IL-4Rα (on TF-1 cells) [7] = molecular target: T1, IL-4Rα (on TF-1 cells); test: cell-based or functional assay; remark: listed apart in the source
IL-5 [8] = molecular target: T3, IL-5 (human, UniProt P05113 20-134); test: cell-based or functional assay
T3 sequence (P05113 20-134 limits assumed): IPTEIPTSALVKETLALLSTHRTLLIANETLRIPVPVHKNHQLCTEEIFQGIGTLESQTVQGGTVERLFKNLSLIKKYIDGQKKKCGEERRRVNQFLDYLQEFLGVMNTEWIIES

IL-5 [9] = molecular target: T3, IL-5; test: competition ELISA: IL-5R coated, biotin-IL-5 at EC80 mixed with antibody dilutions, OD450
Description: as §2, §3

B1: humanized anti-IL-4Rα single domain antibody 4E9-V6 (VHH)
VHH: QVQLVESGGGLVQPGGSLRLSCAASGDFYCMAWFRQAPGKEREAVATIRSGGRSTYYADSVKGRFTISRDNSKNTLYLQMNSLKAEDTAVYYCAVGVDGNCRNYWGQGTLVTVSS
EC50 of neutralizing IL-4-induced TF-1 proliferation (IL-4Rα (on TF-1 cells) [1]): 0.000707 µM | Kd [2]: 0.00305 µM | koff [2]: 0.000506 s⁻¹ | kon [2]: 166000 M⁻¹ s⁻¹ | EC50 of neutralizing IL-13-induced TF-1 proliferation (IL-4Rα (on TF-1 cells) [3]): 0.000759 µM

B2: humanized anti-IL-4Rα single domain antibody 4E9-V2 (VHH)
VHH: QVQLVESGGGLVQPGGSLRLSCAASGDFYCLGWFRQAPGQEREAVAAIRSGGRSTYYADSVKGRFTISRDNSKNTLYLQMNSLRAEDTAVYYCAVGVDGNCRNYWGQGTLVTVSS
EC50 of neutralizing IL-4-induced TF-1 proliferation (IL-4Rα (on TF-1 cells) [1]): 0.0521 µM

B3: humanized anti-IL-4Rα single domain antibody 4E9-V8 (VHH)
VHH: QVQLVESGGGLVQPGGSLRLSCAASGDFYCMAWFRQAPGKERERVAKIRSGGRSTYLADSVKGRFTISRDNSKNTLYLQMNSLKAEDTAVYYCAVGVDGNCRNYWGQGTLVTVSS
EC50 of neutralizing IL-4-induced TF-1 proliferation (IL-4Rα (on TF-1 cells) [1]): 0.00277 µM | EC50 of neutralizing IL-13-induced TF-1 proliferation (IL-4Rα (on TF-1 cells) [3]): 0.00311 µM

B4: humanized anti-IL-4Rα single domain antibody 4E9-V9 (VHH)
VHH: QVQLVESGGGLVQPGGSLRLSCAASGDFYCMAWFRQAPGKERERVATIRSGGRSTYYADSVKGRFTISRDNSKNTLYLQMNSLKAEDTAVYYCAVGVDGNCRNYWGQGTLVTVSS
EC50 of neutralizing IL-4-induced TF-1 proliferation (IL-4Rα (on TF-1 cells) [1]): 0.000752 µM

B5: humanized anti-IL-4Rα single domain antibody 4E9-V3 (VHH)
VHH: QVQLVESGGGLVQPGGSLRLSCAASGDFYCLGWFRQAPGQEREAVAAIRSGGRSTYYADSVKGRFTISRDNSKNTLYLQMNSLKAEDTAVYYCAVGVDGNCRNYWGQGTLVTVSS
EC50 of neutralizing IL-4-induced TF-1 proliferation (IL-4Rα (on TF-1 cells) [1]): 0.0138 µM

B7: humanized anti-IL-4Rα single domain antibody 4E9-V5 (VHH)
VHH: QVQLVESGGGLVQPGGSLRLSCAASGDFYCLGWFRQAPGQGLEAVAAIRSGGRSTYYADSVKGRFTISRDNSKNTLYLQMNSLRAEDTAVYYCAVGVDANCRNYWGQGTLVTVSS
EC50 of neutralizing IL-4-induced TF-1 proliferation (IL-4Rα (on TF-1 cells) [1]): 0.000746 µM

B10: humanized anti-IL-4Rα single domain antibody 4E9-V10 (VHH)
VHH: QVQLVESGGGLVQPGGSLRLSCAASGDFYCMAWFRQAPGKEREAVAAIRSGGRSTYYADSVKGRFTISRDNSKNTLYLQMNSLKAEDTAVYYCAVGVDGNCRNYWGQGTLVTVSS
EC50 of neutralizing IL-4-induced TF-1 proliferation (IL-4Rα (on TF-1 cells) [1]): 0.000271 µM | Kd [4]: 0.00308 µM | koff [2]: 0.000534 s⁻¹ | kon [2]: 173000 M⁻¹ s⁻¹ | EC50 of neutralizing IL-13-induced TF-1 proliferation (IL-4Rα (on TF-1 cells) [3]): 0.00018 µM

B11: anti-IL-4Rα single domain antibody 4E9 (4E9-V0) (VHH)
VHH: QVQLVESGGGSVQAGGSLRLSCAASGDFYCMAWFRQAPGKEREGVATIRSGGRSTYYADSVKGRFTISKDNAKDTLYLQMNSLKPEDTAMYYCAVGVDGNCRNYWGQGTQVTVSS
notes: also called non-humanized antibody
EC50 [5]: 0.00445 µM | EC50 of neutralizing IL-4-induced TF-1 cell proliferation (IL-4Rα (on TF-1 cells) [6]): 0.000281 µM | EC50 of neutralizing IL-13-induced TF-1 cell proliferation (IL-4Rα (on TF-1 cells) [7]): 0.000229 µM

B12: dupilumab (antibody, V domains shown)
VH: EVQLVESGGGLEQPGGSLRLSCAGSGFTFRDYAMTWVRQAPGKGLEWVSSISGSGGNTYYADSVKGRFTISRDNSKNTLYLQMNSLRAEDTAVYYCAKDRLSITIRPRYYGLDVWGQGTTVTVSS
VL: DIVMTQSPLSLPVTPGEPASISCRSSQSLLYSIGYNYLDWYLQKSGQSPQLLIYLGSNRASGVPDRFSGSGSGTDFTLKISRVEAEDVGFYYCMQALQTPYTFGQGTKLEIKR
EC50 [5]: 0.00432 µM

B16: humanized anti-IL-4Rα single domain antibody 4E9-V7 (VHH)
VHH: QVQLVESGGGLVQPGGSLRLSCAASGDFYCMAWFRQAPGKEREAVAIRSGGRSTYLADSVKGRFTISRDNSKNTLYLQMNSLKAEDTAVYYCAVGVDGNCRNYWGQGTLVTVSS
EC50 of neutralizing IL-4-induced TF-1 proliferation (IL-4Rα (on TF-1 cells) [1]): 0.185 µM

Now from value to binder:

EC50 of neutralizing IL-4-induced TF-1 proliferation (IL-4Rα (on TF-1 cells) [1]): 18600 µM
B6: humanized anti-IL-4Rα single domain antibody 4E9-V14 (VHH)
VHH: QVQLVESGGGLVQPGGSLRLSCAASGDFYCMAWFRQAPGKEREAVATIRSGGRSTYYADSVKGRFTISRDNSKNTLYLQMNSLRAEDTAVYYCAVGVDGNCRNYWGQGTLVTVSS

EC50 of neutralizing IL-4-induced TF-1 proliferation (IL-4Rα (on TF-1 cells) [1]): 0.00452 µM | Kd [2]: 0.00341 µM | koff [2]: 0.000565 s⁻¹ | kon [2]: 166000 M⁻¹ s⁻¹ | EC50 of neutralizing IL-13-induced TF-1 proliferation (IL-4Rα (on TF-1 cells) [3]): 0.0042 µM
B8: humanized anti-IL-4Rα single domain antibody 4E9-V13 (VHH)
VHH: QVQLVESGGGLVQPGGSLRLSCAASGDFYCMAWFRQAPGKEREAVATIRSGGRSTYYADSVKGRFTISRDNSKNTVYLQMNSLKAEDTAVYYCAVGVDGNCRNYWGQGTLVTVSS

EC50 of neutralizing IL-4-induced TF-1 proliferation (IL-4Rα (on TF-1 cells) [1]): 0.00203 µM | Kd [2]: 0.0093 µM | koff [2]: 0.000268 s⁻¹ | kon [2]: 28800 M⁻¹ s⁻¹ | EC50 of neutralizing IL-13-induced TF-1 proliferation (IL-4Rα (on TF-1 cells) [3]): 0.00211 µM
B9: humanized anti-IL-4Rα single domain antibody 4E9-V12 (VHH)
VHH: QVQLVESGGGLVQPGGSLRLSCAASGDFYCMAWFRQAPGKEREAVATIRSGGRSTYLADSVKGRFTISRDNSKNTLYLQMNSLKAEDTAVYYCAVGVDGNCRNYWGQGTLVTVSS

EC50 of neutralizing IL-5-induced TF-1 cell proliferation (IL-5 [8]): 0.000336 µM | EC50 (IL-5 [9]): 0.00691 µM
B13: non-humanized anti-IL-5 single domain antibody 2B3 (VHH)
VHH: QVQLVESGGGSVQAGGSLRLSCAASGNTFSFSTYCMGWFRQSPGKEREGSLATIYDGSTAYAGSVKGRFTISVDNAKNILYLQMNNLKPEDTAMYYCAAAKYCMFWSDPSYWGQGTQVTVSS

EC50 of neutralizing IL-5-induced TF-1 cell proliferation (IL-5 [8]): 0.000122 µM | EC50 (IL-5 [9]): 0.00621 µM
B14: reslizumab (antibody, V domains shown)
VH: EVQLVESGGGLVQPGGSLRLSCAVSGLSLTSNSVNWIRQAPGKGLEWVGLIWSNGDTDYNSAIKSRFTISRDTSKSTVYLQMNSLRAEDTAVYYCAREYYGYFDYWGQGTLVTVSS
VL: DIQMTQSPSSLSASVGDRVTITCLASEGISSYLAWYQQKPGKAPKLLIYGANSLQTGVPSRFSGSGSATDYTLTISSLQPEDFATYYCQQSYKFPNTFGQGTKVEVK

EC50 of neutralizing IL-4-induced TF-1 proliferation (IL-4Rα (on TF-1 cells) [1]): 1880 µM
B15: humanized anti-IL-4Rα single domain antibody 4E9-V11 (VHH)
VHH: QVQLVESGGGLVQPGGSLRLSCAASGDFYCMAWFRQAPGKEREAVAIRSGGRSTYYADSVKGRFTISRDNSKNTLYLQMNSLKAEDTAVYYCAVGVDGNCRNYWGQGTLVTVSS
